According to patent US20090081183A1, “HIV Transcription Repressor Complex and Compositions and Methods Based Thereon” (priority 1997, published 2009):
Like-named read-outs stand apart in the source and are kept apart here.

T1: LSF (Homo sapiens, UniProt Q12800, A491Q)
T1 construct: host or cells: in vitro transcription/translation in rabbit reticulocyte lysate (T7 RNA polymerase)
T1 sequence (Q12800 1-502 A491Q): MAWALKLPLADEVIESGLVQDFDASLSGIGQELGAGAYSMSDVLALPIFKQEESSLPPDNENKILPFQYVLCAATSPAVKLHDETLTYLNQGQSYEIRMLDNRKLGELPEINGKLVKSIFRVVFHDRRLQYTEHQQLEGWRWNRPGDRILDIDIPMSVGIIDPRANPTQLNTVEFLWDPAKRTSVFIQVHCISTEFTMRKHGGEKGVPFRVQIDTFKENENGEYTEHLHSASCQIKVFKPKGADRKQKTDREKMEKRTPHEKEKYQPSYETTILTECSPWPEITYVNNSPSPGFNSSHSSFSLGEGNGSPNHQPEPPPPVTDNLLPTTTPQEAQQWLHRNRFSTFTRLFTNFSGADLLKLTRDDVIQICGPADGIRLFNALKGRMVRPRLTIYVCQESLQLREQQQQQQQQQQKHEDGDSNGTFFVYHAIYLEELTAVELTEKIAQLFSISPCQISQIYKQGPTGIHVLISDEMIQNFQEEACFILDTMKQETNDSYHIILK


How the values were obtained:
[1] = test system: RCS oligonucleotide (−10 to +27 of HIV-1 LTR); format: binding
HIV-1 LTR = assay: Tat-activated integrated LTR-CAT reporter assay in HeLa-CD4-LTR cells; format: cell-based
Method: Cell lines transfections and assays. Transfections of HeLa cells were performed as previously described (49). HeLa-CD4-LTR (9) cells were grown in DMEM supplemented with 10% FCS and transfected with 20 μg plasmid DNA (prepared using EndoFree plasmid kit, Qiagen, Valencia, Calif.) by calcium phosphate coprecipitation as per manufacturer's instructions (ProFection system, Promega, Madison, Wis.). After 30 minutes at room temperature, the solution was added to the cells (2.5-4×10^5 cells/plate). Twelve hours after transfection, the cells were washed with PBS and fed fresh medium. Forty-eight hours later the cells were harvested, cellular extracts prepared, and CAT assays performed as previously described (49). To control for the effect of transcription factor overexpression on general cellular promoters a reporter construct driven by the beta-actin promoter, pH[…]-actin-luciferase (66), was used in cotransfection and CAT expression normalized for luciferase activity. Other plasmids used have been previously described (2, 49). […] Up to 30 μl of cellular extract (normalized for protein concentration) in a final volume of 130 μl was used for luciferase reactions.
The LTR reporter carried by HeLa-CD4-LTR cell line exists within the native chromatin structure of the genome. […]

LSF = target: T1, LSF; assay: In vitro protein interaction mapping: GST-YY1/GFI-1 chimeras retaining 35S-labeled LSF; format: binding; conditions: glutathione-agarose capture, 35S-methionine labeled LSF
Excerpt: In vitro protein interaction mapping: Glutathione-S-transferase (GST)-YY1/GFI-1 chimeras (17) and G3ST-LSF deletion (54, 55) constructs were expressed and harvested in E. coli as previously described. Proteins were visualized by Coomassie brilliant blue staining and protein content was normalized by densitometric analysis. LSF was transcribed and translated in vitro by T7 RNA polymerase in rabbit reticulocyte (Promega, Madison, Wis.) in the presence of ^35S-methionine as per manufacturer's instruction (54). Following capture of GST-YY1/GFI-1 chimera proteins on glutathione-agarose beads, equal volumes of beads were incubated with ^35S-methionine labeled LSF in incubation buffer (17) for 1 hour at 4° C. The beads were washed in incubation buffer/100 mM KCl and resuspended in 20 μl 2×SDS loading buffer. Retained LSF was separated in a 10% SDS gel, dried, and visualized by autoradiography. Similarly, YY1 was transcribed and translated in vitro, incubated with captured GST-LSF constructs, and retained YY1 was by autoradiography following electrophoresis.
YY1 DNA-binding activity and many YY1-protein interactions map to the carboxyl-terminal zinc fingers of the molecule. Therefore, YY1 interaction domains were mapped using chimeric YY1 recombinants (FIG. 2c). […]

| Molecule | Complex formation with the RCS in EMSA ([1]; 10 ng protein alone) | Complex formation with the RCS in EMSA ([1]; 20 ng protein alone) | Tat-activated CAT expression from integrated LTR reporter (HIV-1 LTR; 200 ng pAR-Tat, 2.5 μg CMV expression plasmid, normalized to β-actin-luciferase) | Effect on YY1-mediated repression of integrated LTR-CAT expression (HIV-1 LTR; with YY1 transfection, trichostatin-A added to culture medium (data not shown)) | Binding of LSF in vitro by GST-fused construct (LSF) |
| --- | --- | --- | --- | --- | --- |
| LSF: lymphoid transcription factor (LBF-1, CP-2) that represses LTR-driven transcription (SEQ ID NO: 5) (protein, listed as Homo sapiens) MAWALKLPLADEVIESGLVQDFDASLSGIGQELGAGAYSMSDVLALPIFKQEESSLPPDNENKILPFQYVLCAATSPAVKLHDETLTYLNQGQSYEIRMLDNRKLGELPEINGKLVKSIFRVVFHDRRLQYTEHQQLEGWRWNRPGDRILDIDIPMSVGIIDPRANPTQLNTVEFLWDPAKRTSVFIQVHCISTEFTMRKHGGEKGVPFRVQIDTFKENENGEYTEHLHSASCQIKVFKPKGADRKQKTDREKMEKRTPHEKEKYQPSYETTILTECSPWPEITYVNNSPSPGFNSSHSSFSLGEGNGSPNHQPEPPPPVTDNLLPTTTPQEAQQWLHRNRFSTFTRLFTNFSGADLLKLTRDDVIQICGPADGIRLFNALKGRMVRPRLTIYVCQESLQLREQQQQQQQQQQKHEDGDSNGTFFVYHAIYLEELTAVELTEKIAQLFSISPCQISQIYKQGPTGIHVLISDEMIQNFQEEACFILDTMKQETNDSYHIILK | formed a diffuse faintly visible EMSA band | induced a very prominent protein-DNA complex | had no effect on expression of CAT | augmented repression mediated by YY1 | – |
| YZnFs: GST fused to all four YY1 zinc fingers without the YY1 amino-terminal region (protein, left off: a dimerising Fc or GST, GST fused to all four YY1 zinc fingers without the YY1 amino-terminal region) TIACPHKGCTKMFRDNSAMRKHLHTHGPRVHVCAECGKAFVESSKLKRHQLVHTGEKPFQCTFEGCGKRFSLDFNLRTHVRIHTGDRPYVCPFDGCNKKFAQSTNLKSHILTHAKAKNNQ | – | – | – | – | binds LSF with equal avidity to intact GST-YY1 |
